# Assay results taken from US20160272683A1 (Novo Nordisk, published 2016).
# Numbered stars: 1 amine (or outer) side, 2 acyl side, 3 side chain; on linkers, the order of the positions; unused ones are H or OH. * marks the point of attachment. C20 diacid = O=C(O)CCCCCCCCCCCCCCCCCCC(=O)*; C18 diacid = O=C(O)CCCCCCCCCCCCCCCCC(=O)*; γGlu = O=C(O)[C@H](CCC(=O)[*:2])N[*:1]; AEEA = NCCOCCOCC(=O)O
# T1: human amylin 3(a) receptor (human calcitonin receptor co-expressed with RAMP-3) on BHK570/CRE-luc cells (human, UniProt P30988 25-474; O60896 24-148)
# T1 sequence (looked up) 1: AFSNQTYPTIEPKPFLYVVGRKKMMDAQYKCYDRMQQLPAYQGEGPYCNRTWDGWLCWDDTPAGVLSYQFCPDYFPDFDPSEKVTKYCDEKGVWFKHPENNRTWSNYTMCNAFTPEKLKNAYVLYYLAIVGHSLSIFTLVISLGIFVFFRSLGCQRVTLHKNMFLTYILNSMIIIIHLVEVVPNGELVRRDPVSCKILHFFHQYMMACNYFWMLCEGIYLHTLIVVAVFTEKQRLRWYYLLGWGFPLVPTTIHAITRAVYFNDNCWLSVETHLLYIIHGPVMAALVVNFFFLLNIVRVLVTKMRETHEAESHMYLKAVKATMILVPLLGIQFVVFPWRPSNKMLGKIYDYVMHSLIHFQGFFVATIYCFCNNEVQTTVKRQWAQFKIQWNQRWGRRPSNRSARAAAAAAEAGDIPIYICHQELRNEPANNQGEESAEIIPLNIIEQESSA
# T1 sequence (looked up) 2: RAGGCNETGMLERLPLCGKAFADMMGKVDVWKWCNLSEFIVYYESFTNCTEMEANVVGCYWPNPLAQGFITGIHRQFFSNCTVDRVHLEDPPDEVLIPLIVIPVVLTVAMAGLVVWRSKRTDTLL
# T2: human calcitonin receptor on BHK570/CRE-luc cells (human, UniProt P30988 25-474)
# T2 sequence (looked up): T1 sequence (looked up) 1
# B1: [N-terminal(C20 diacid-gGlu), des1, 4G, 9V, 15Q, 21Q, 23Y, 30S, 31A, 32T, 33Y]mimylin (peptide)
# peptide: {C20 diacid-γGlu}-ASGLSTAVLGRLSQELHELQTYPRTETGSATY-NH2
# SMILES: CC(C)C[C@H](NC(=O)CNC(=O)[C@H](CO)NC(=O)[C@H](C)NC(=O)CC[C@H](NC(=O)CCCCCCCCCCCCCCCCCCC(=O)O)C(=O)O)C(=O)N[C@@H](CO)C(=O)N[C@H](C(=O)N[C@@H](C)C(=O)N[C@H](C(=O)N[C@@H](CC(C)C)C(=O)NCC(=O)N[C@@H](CCCNC(=N)N)C(=O)N[C@@H](CC(C)C)C(=O)N[C@@H](CO)C(=O)N[C@@H](CCC(N)=O)C(=O)N[C@@H](CCC(=O)O)C(=O)N[C@@H](CC(C)C)C(=O)N[C@@H](Cc1c[nH]cn1)C(=O)N[C@@H](CCC(=O)O)C(=O)N[C@@H](CC(C)C)C(=O)N[C@@H](CCC(N)=O)C(=O)N[C@H](C(=O)N[C@@H](Cc1ccc(O)cc1)C(=O)N1CCC[C@H]1C(=O)N[C@@H](CCCNC(=N)N)C(=O)N[C@H](C(=O)N[C@@H](CCC(=O)O)C(=O)N[C@H](C(=O)NCC(=O)N[C@@H](CO)C(=O)N[C@@H](C)C(=O)N[C@H](C(=O)N[C@@H](Cc1ccc(O)cc1)C(N)=O)[C@@H](C)O)[C@@H](C)O)[C@@H](C)O)[C@@H](C)O)C(C)C)[C@@H](C)O
# B2: [N-terminal(C18 diacid-gGlu-2xOEG), des1, 4G, 9V, 15Q, 21Q, 23Y, 30S, 31G, 32T, 33Y]mimylin (peptide)
# peptide: {C18 diacid-γGlu-AEEA-AEEA}-ASGLSTAVLGRLSQELHELQTYPRTETGSGTY-NH2
# SMILES: CC(C)C[C@H](NC(=O)CNC(=O)[C@H](CO)NC(=O)[C@H](C)NC(=O)COCCOCCNC(=O)COCCOCCNC(=O)CC[C@H](NC(=O)CCCCCCCCCCCCCCCCC(=O)O)C(=O)O)C(=O)N[C@@H](CO)C(=O)N[C@H](C(=O)N[C@@H](C)C(=O)N[C@H](C(=O)N[C@@H](CC(C)C)C(=O)NCC(=O)N[C@@H](CCCNC(=N)N)C(=O)N[C@@H](CC(C)C)C(=O)N[C@@H](CO)C(=O)N[C@@H](CCC(N)=O)C(=O)N[C@@H](CCC(=O)O)C(=O)N[C@@H](CC(C)C)C(=O)N[C@@H](Cc1c[nH]cn1)C(=O)N[C@@H](CCC(=O)O)C(=O)N[C@@H](CC(C)C)C(=O)N[C@@H](CCC(N)=O)C(=O)N[C@H](C(=O)N[C@@H](Cc1ccc(O)cc1)C(=O)N1CCC[C@H]1C(=O)N[C@@H](CCCNC(=N)N)C(=O)N[C@H](C(=O)N[C@@H](CCC(=O)O)C(=O)N[C@H](C(=O)NCC(=O)N[C@@H](CO)C(=O)NCC(=O)N[C@H](C(=O)N[C@@H](Cc1ccc(O)cc1)C(N)=O)[C@@H](C)O)[C@@H](C)O)[C@@H](C)O)[C@@H](C)O)C(C)C)[C@@H](C)O
# B3: [N-terminal(C20 diacid-gGlu), des1, 2L, 4G, 9V, 21S, 23Y, 30S, 31G, 32T, 33Y]mimylin (peptide)
# peptide: {C20 diacid-γGlu}-LSGLSTAVLGRLSAELHELSTYPRTETGSGTY-NH2
# SMILES: CC(C)C[C@H](NC(=O)CC[C@H](NC(=O)CCCCCCCCCCCCCCCCCCC(=O)O)C(=O)O)C(=O)N[C@@H](CO)C(=O)NCC(=O)N[C@@H](CC(C)C)C(=O)N[C@@H](CO)C(=O)N[C@H](C(=O)N[C@@H](C)C(=O)N[C@H](C(=O)N[C@@H](CC(C)C)C(=O)NCC(=O)N[C@@H](CCCNC(=N)N)C(=O)N[C@@H](CC(C)C)C(=O)N[C@@H](CO)C(=O)N[C@@H](C)C(=O)N[C@@H](CCC(=O)O)C(=O)N[C@@H](CC(C)C)C(=O)N[C@@H](Cc1c[nH]cn1)C(=O)N[C@@H](CCC(=O)O)C(=O)N[C@@H](CC(C)C)C(=O)N[C@@H](CO)C(=O)N[C@H](C(=O)N[C@@H](Cc1ccc(O)cc1)C(=O)N1CCC[C@H]1C(=O)N[C@@H](CCCNC(=N)N)C(=O)N[C@H](C(=O)N[C@@H](CCC(=O)O)C(=O)N[C@H](C(=O)NCC(=O)N[C@@H](CO)C(=O)NCC(=O)N[C@H](C(=O)N[C@@H](Cc1ccc(O)cc1)C(N)=O)[C@@H](C)O)[C@@H](C)O)[C@@H](C)O)[C@@H](C)O)C(C)C)[C@@H](C)O
# B4: [N-terminal(C20 diacid-gGlu), des1, 4G, 9T, 15Q, 21Q, 23Y, 30S, 31G, 32T, 33Y]mimylin (peptide)
# peptide: {C20 diacid-γGlu}-ASGLSTATLGRLSQELHELQTYPRTETGSGTY-NH2
# B5: [N-terminal(C20 diacid-gGlu), des1, 4G, 8L, 9V, 15Q, 21Q, 23Y, 30S, 31Q, 32T, 33Y]mimylin (peptide)
# peptide: {C20 diacid-γGlu}-ASGLSTLVLGRLSQELHELQTYPRTETGSQTY-NH2
# SMILES: CC(C)C[C@H](NC(=O)CNC(=O)[C@H](CO)NC(=O)[C@H](C)NC(=O)CC[C@H](NC(=O)CCCCCCCCCCCCCCCCCCC(=O)O)C(=O)O)C(=O)N[C@@H](CO)C(=O)N[C@H](C(=O)N[C@@H](CC(C)C)C(=O)N[C@H](C(=O)N[C@@H](CC(C)C)C(=O)NCC(=O)N[C@@H](CCCNC(=N)N)C(=O)N[C@@H](CC(C)C)C(=O)N[C@@H](CO)C(=O)N[C@@H](CCC(N)=O)C(=O)N[C@@H](CCC(=O)O)C(=O)N[C@@H](CC(C)C)C(=O)N[C@@H](Cc1c[nH]cn1)C(=O)N[C@@H](CCC(=O)O)C(=O)N[C@@H](CC(C)C)C(=O)N[C@@H](CCC(N)=O)C(=O)N[C@H](C(=O)N[C@@H](Cc1ccc(O)cc1)C(=O)N1CCC[C@H]1C(=O)N[C@@H](CCCNC(=N)N)C(=O)N[C@H](C(=O)N[C@@H](CCC(=O)O)C(=O)N[C@H](C(=O)NCC(=O)N[C@@H](CO)C(=O)N[C@@H](CCC(N)=O)C(=O)N[C@H](C(=O)N[C@@H](Cc1ccc(O)cc1)C(N)=O)[C@@H](C)O)[C@@H](C)O)[C@@H](C)O)[C@@H](C)O)C(C)C)[C@@H](C)O
# B6: [N-terminal(C20 diacid-gGlu), des1, 4G, 9V, 15Q, 21Q, 23Y, 25P, 30S, 31Q, 32T, 33Y]mimylin (peptide)
# peptide: {C20 diacid-γGlu}-ASGLSTAVLGRLSQELHELQTYPPTETGSQTY-NH2
# SMILES: CC(C)C[C@H](NC(=O)CNC(=O)[C@H](CO)NC(=O)[C@H](C)NC(=O)CC[C@H](NC(=O)CCCCCCCCCCCCCCCCCCC(=O)O)C(=O)O)C(=O)N[C@@H](CO)C(=O)N[C@H](C(=O)N[C@@H](C)C(=O)N[C@H](C(=O)N[C@@H](CC(C)C)C(=O)NCC(=O)N[C@@H](CCCNC(=N)N)C(=O)N[C@@H](CC(C)C)C(=O)N[C@@H](CO)C(=O)N[C@@H](CCC(N)=O)C(=O)N[C@@H](CCC(=O)O)C(=O)N[C@@H](CC(C)C)C(=O)N[C@@H](Cc1c[nH]cn1)C(=O)N[C@@H](CCC(=O)O)C(=O)N[C@@H](CC(C)C)C(=O)N[C@@H](CCC(N)=O)C(=O)N[C@H](C(=O)N[C@@H](Cc1ccc(O)cc1)C(=O)N1CCC[C@H]1C(=O)N1CCC[C@H]1C(=O)N[C@H](C(=O)N[C@@H](CCC(=O)O)C(=O)N[C@H](C(=O)NCC(=O)N[C@@H](CO)C(=O)N[C@@H](CCC(N)=O)C(=O)N[C@H](C(=O)N[C@@H](Cc1ccc(O)cc1)C(N)=O)[C@@H](C)O)[C@@H](C)O)[C@@H](C)O)[C@@H](C)O)C(C)C)[C@@H](C)O
# Target: T1, human amylin 3(a) receptor (human …)
# Test: cell-based or functional assay
row,Binder,"hAmylin-R funct. EC50 (pM), tested with HSA [pM]"
1,B1,77
2,B2,80
3,B3,64
4,B4,122
5,B5,223
6,B6,152

# Target: T2, human calcitonin receptor on …
# Test: cell-based or functional assay
row,Binder,"hCTR funct. EC50 (pM), tested with HSA [pM]"
1,B1,37
2,B2,38
3,B3,34
4,B4,92
5,B5,142
6,B6,72
